Substitutions are numbered along the chain they refer to.
B1: G03-VH-GL / G06-VL-GL1 (antibody, V domains shown)
VH: EVQLVQSGAEVKKPGASVKVSCKASGYTFTSYGISWVRQAPGQGLEWMGWISAYNGNTNYAQKLQGRVTMTTDTSTSTAYMELRSLRSDDTAVYYCARDYYGMDVWGQGTTVTVSS
VL: QAVLTQPPSASGTPGQRVTISCSGSTFNIGSNTVNWYQQLPGTAPKLLIYSDSHRPSGVPDRFSGSNSWNTASLAISGLQSEDEADYYCQAWDSSAVVFGGGTKVTVLG
B2: G03-VH-GL-V1-V9 / G06-VL-GL1 (antibody, V domains shown)
VH: B1 VH with W50Y, G56A
VL: B1 VL
B3: G03-VH-GL-V1 / G06-VL-GL1 (antibody, V domains shown)
VH: B1 VH with W50Y
VL: B1 VL

target: Human MMP9 (i.e. activated MMP9) (human, UniProt P14780 107-707); experiment: cell-based or functional assay
Sequence (P14780 107-707): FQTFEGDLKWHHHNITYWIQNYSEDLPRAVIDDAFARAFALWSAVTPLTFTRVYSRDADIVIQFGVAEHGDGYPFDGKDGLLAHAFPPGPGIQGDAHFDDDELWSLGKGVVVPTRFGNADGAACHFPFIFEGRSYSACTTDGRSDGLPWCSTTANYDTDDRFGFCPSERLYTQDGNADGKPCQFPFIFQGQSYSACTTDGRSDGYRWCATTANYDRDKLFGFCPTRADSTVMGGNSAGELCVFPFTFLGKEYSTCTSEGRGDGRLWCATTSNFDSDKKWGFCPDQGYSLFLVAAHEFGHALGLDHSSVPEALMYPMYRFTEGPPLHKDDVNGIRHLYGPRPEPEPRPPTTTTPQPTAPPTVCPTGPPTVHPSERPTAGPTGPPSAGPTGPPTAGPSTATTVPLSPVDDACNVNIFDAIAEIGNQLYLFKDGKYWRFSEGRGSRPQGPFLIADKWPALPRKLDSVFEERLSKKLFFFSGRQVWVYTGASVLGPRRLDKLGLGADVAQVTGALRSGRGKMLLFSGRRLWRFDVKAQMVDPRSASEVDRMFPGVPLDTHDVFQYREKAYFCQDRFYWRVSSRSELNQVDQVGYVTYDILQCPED

| Efficiency, neutralization of catalytic activity on DQ-gelatin (MMP9 assay) | IC50 (nM), neutralization of catalytic activity on DQ-gelatin (MMP9 assay) | Binder |
| --- | --- | --- |
| 50% | 0.13 nM | B1 |
| 50% | 0.11 nM | B2 |
| 50% | 0.06 nM | B3 |

target: Human proMMP9 (human, UniProt P14780 20-707); experiment: cell-based or functional assay
Sequence (P14780 20-707): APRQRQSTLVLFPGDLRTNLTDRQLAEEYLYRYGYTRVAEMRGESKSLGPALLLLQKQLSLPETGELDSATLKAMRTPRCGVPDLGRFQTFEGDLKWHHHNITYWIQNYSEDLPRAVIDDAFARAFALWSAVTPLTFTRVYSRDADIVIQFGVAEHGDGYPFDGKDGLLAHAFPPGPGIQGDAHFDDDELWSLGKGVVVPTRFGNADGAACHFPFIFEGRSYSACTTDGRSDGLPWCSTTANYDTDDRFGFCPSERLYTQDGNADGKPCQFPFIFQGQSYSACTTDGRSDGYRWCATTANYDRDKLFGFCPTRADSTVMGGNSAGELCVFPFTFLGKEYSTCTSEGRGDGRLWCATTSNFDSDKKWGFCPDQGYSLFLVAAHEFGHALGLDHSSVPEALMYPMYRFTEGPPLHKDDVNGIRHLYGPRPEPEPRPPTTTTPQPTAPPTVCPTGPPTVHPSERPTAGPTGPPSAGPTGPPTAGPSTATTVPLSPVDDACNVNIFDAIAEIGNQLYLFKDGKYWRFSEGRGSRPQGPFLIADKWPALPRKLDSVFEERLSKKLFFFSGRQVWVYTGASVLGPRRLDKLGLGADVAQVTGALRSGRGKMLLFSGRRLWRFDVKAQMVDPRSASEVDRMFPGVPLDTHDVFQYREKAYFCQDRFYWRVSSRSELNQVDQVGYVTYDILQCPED

| Efficiency, neutralization of proMMP9 processing and/or downstream catalytic activity on DQ-gelatin (MMP3/MMP9 assay) | IC50 (nM), neutralization of proMMP9 processing and/or downstream catalytic activity on DQ-gelatin (MMP3/MMP9 assay) | Binder |
| --- | --- | --- |
| 100% | 0.21 nM | B1 |
| 100% | 0.21 nM | B2 |
| 100% | 0.19 nM | B3 |

target: Cyno proMMP9 (Cynomologus monkey); experiment: cell-based or functional assay

| Efficiency, neutralization of processing of cyno MMP9 and/or its catalytic activity on gelatin (MMP3/MMP9 assay) | IC50 (nM), neutralization of processing of cyno MMP9 and/or its catalytic activity on gelatin (MMP3/MMP9 assay) | Binder |
| --- | --- | --- |
| 100% | 0.04 nM | B1 |
| 100% | 0.14 nM | B2 |
| 100% | 0.03 nM | B3 |

target: rat proMMP9 (rat, UniProt P50282 20-708); experiment: cell-based or functional assay
Sequence (P50282 20-708): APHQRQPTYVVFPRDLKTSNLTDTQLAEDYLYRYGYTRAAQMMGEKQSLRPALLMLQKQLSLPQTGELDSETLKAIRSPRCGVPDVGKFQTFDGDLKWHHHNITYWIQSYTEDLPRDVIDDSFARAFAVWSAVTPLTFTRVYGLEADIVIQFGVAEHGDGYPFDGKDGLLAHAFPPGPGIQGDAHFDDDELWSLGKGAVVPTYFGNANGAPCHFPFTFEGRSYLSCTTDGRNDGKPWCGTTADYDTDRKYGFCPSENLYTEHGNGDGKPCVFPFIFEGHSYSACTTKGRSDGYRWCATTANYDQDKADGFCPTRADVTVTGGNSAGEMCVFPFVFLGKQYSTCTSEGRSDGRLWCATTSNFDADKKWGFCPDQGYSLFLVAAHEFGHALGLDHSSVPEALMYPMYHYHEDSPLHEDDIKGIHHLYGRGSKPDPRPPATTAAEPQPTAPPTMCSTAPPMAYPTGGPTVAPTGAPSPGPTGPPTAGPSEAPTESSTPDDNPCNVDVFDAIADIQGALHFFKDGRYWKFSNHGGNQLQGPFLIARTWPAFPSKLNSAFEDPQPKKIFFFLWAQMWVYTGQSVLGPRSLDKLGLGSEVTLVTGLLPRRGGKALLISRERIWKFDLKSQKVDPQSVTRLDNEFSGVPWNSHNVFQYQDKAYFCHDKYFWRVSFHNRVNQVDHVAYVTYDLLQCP

| Efficiency, neutralization of processing of rat MMP9 and/or its catalytic activity on gelatin (MMP3/MMP9 assay) | IC50 (nM), neutralization of processing of rat MMP9 and/or its catalytic activity on gelatin (MMP3/MMP9 assay) | Binder |
| --- | --- | --- |
| 100% | 64.7 nM | B1 |
| 100% | 93.6 nM | B2 |
| 100% | 19 nM | B3 |

target: mouse proMMP9 (mouse, UniProt P41245 20-730); experiment: cell-based or functional assay
Sequence (P41245 20-730): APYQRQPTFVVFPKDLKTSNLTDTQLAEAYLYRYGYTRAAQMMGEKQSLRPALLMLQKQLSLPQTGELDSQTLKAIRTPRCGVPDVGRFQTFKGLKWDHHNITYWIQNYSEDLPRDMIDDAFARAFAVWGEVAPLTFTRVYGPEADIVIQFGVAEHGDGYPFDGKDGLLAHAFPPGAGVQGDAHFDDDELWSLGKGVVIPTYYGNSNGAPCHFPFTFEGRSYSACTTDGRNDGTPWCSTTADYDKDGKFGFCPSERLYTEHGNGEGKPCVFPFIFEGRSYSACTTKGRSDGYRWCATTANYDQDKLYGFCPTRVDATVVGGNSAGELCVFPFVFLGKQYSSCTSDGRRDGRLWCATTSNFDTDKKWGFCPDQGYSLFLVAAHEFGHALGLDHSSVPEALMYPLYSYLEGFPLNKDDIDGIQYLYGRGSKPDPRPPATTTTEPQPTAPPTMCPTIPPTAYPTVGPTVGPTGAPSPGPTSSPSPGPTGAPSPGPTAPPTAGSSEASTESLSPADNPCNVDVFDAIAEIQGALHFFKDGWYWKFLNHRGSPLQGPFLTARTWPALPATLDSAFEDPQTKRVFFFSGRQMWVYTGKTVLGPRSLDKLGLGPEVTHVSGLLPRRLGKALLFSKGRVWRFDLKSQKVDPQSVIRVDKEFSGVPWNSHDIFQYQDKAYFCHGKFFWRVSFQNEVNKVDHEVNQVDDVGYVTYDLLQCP

| Efficiency, neutralization of processing of mouse MMP9 and/or its catalytic activity on gelatin (MMP3/MMP9 assay) | IC50 (nM), neutralization of processing of mouse MMP9 and/or its catalytic activity on gelatin (MMP3/MMP9 assay) | Binder |
| --- | --- | --- |
| 30% | 151 nM | B1 |
| 25% | 12.6 nM | B2 |
| 25% | 16.4 nM | B3 |
